The data set is described as follows: soluble on expression in E. coli; label from the status in PepcDB or PDB records.
On to “MGSDKIHHHHHHMERVHVDIRQLQFFAEIVRYGSFTKAAERLHVAQPAVSMAMKKLEEELDLILFNRQERRISLTAEGEIFLRHAEKILDEVKSAETEMEELRGLAKGEVRVGIPPMMSAYFFPEIIRDFSNSYPDLHLTVSGEGASKIQKMIIDGELDMGVVAGASFPETLEVRRFLREEVIVCVPRSHPLASRGSLTLHEFARHPLIFYREGYYLRELILDVLRGAGLSPTIRFETNLYTLVKSLVQKGMGISVFLRMVVAEDDDLTAISLDPPLFLDLLIAWKKHGYLSRANRAFADYLLEKGSSAAL”, for which the “soluble on expression in E. coli” value is on record as “not soluble”.

With “MSLTAPRLRILSVEVRERMMPFVRPFRFGPSVVEAAPQAFVRIELEVEGAGRAVGQAAEMMMPRWFDKAPHKSPEQTVDDLRRVLLHAAALYADAPWSTAYGLSADAAAMQLGWAEGRGIPALAAHFGPALLDKAVVDALLRALSLTFPEGLSRNVMGLDARNARDLSPEQIPALLASLTPVPAVAVRHTIGLLDPLEGPHGLSAEIAAARLRFFKIKIGGDLAADLDRLAAITALLTHLAPDFRATLDANEQYDPERLCQLAAGLDTPALRPLKARLLYIEQPFDRTETFTRPLPPALDGIPVIIDEADGGLDAFPRAIALGYRGVSSKACKGLYKSILNAVRVQAGEGTFLTAEDLTCQPGLGLQQDLALVATLGLTHGERNGHHYVAGFGPAPEEEAGAFAAAHPDLYRLTDAGAALDVSRGVLATASLLSAPGFAGRAEPDWASLAPVTEGHHHHHH”, the “soluble on expression in E. coli” value is on record as “not soluble”. With “MINKIFALPVIEQLTPVLSRRQLDDLDLIVVDHPQVKASFALQGAHLLSWKPVGEEEVLWLSNNTPFKTGVALRGGVPICWPWFGPAAQQGLPSHGFARNLPWALKAHNEDDNGVMLTFELQSSEATRKYWPHDFTLLARFKVGKTCEIELEAHGEFATTSALHSYFNVGDIANVKVSGLGDRFIDKVNDAKEGVLTDGIQTFPDRTDRVYLNPEACSVIHDATLNRTIDVVHHHHLNVVGWNPGPALSVSMGDMPDDGYKTFVCVETVYATAPQQATEEKPSRLAQTICVAKR”, the “soluble on expression in E. coli” value is given as “not soluble”. Turning to “MVWDVETAKRFLEVIRNETIYYPVLIALHTGMRAGEIVSLKWYDVNFEARIISVVKSVRNNRGLKTSDVKTKTSKRSVYINDVLFSELKNLYETIKPKPDDFVCPRLPTGNLTVGYLSKRFKLLVKRYNFPVIRFHDLRHTFATLMLSLGVNTKIVAEILGHSDIKLTADTYSHVLPTMQESAMKEFSKLWKLEHHHHHH”, the “soluble on expression in E. coli” value is “soluble”. As for “MGHHHHHHSHMSGVAGGASKKSSSRTMATKKLIIDEFKRRLRDNIKSLNDNFFHIIQAAKVNPDDNAYKNQTGKMTEFYTTKNEMAVRAQLMVRASDELLKLTADLKEFLILHDFHFLTHNIKQAEAQCEETLRQQSHQHNCLDSEVSNILFDLEREIAENFYLRHT”, the “soluble on expression in E. coli” value is “not soluble”.

For “MAHHHHHHMGTLEAQTQGPGSMKQAYDNNNIFAKLIRNEIPSVRVYEDDDVIAFMDIMPQAPGHTLVIPKKGSRNLLDADTETLFPVIKAVQKIAKAVKKAFQADGITVMQFNEAASQQTVYHLHFHIIPRMEGIELTPHNNIITPTEILEENAKKIRAAL”, the “soluble on expression in E. coli” value is “soluble”. Consider “PREFVLRPAPQGRTVRCRLTRDKKGMDRGMYPSYFLHLDTEKKVFLLAGRKRKRSKTANYLISIDPTNLSRGGENFIGKLRSNLLGNRFTVFDNGQNPQRGYSTNVASLRQELAAVIYETNVLGFRGPRRMTVIIPGMSAENERVPIRPRNASDGLLVRWQNKTLESLIELHNKPPVWNDDSGSYTLNFQGRVTQASVKNFQIVHADDPDYIVLQFGRVAEDAFTLDYRYPLCALQAFAIALSSFD”, for which the “soluble on expression in E. coli” value is listed as “soluble”. Regarding “MLALGKLLELTLAGREPAEKTQLTVEGVRMRWLAEGALEVRPPQARDNGTDLLLSAGIHGNETAPIELLDELIRSIARGDLKPRARILFLFGNPAAMRLGARYVEQDVNRLFNGRHEQSGGAEALRACELERLAASFFSLPDRYRLHYDLHTAIRGSKIEQFALYPWKEGRQHSRFELARLRAAGISAVLLQNKPSIVFSAYTYEQLGAEAFTLELGKARPFGQNRHVNLAPLRLRLEQIIEGSEPQPDERLEGLQLFSVAREVIKRSDAFTFNLADDVENFSELEKGYVLAEDVSDSRWVVKEEGARIIFPNPKVKNGLRAGIVIVPADADGLGLEHHHHHH”, the “soluble on expression in E. coli” value was “not soluble”. Take “MTMPYYASAEQIMRDRSELARKGIARGRSVVVLTFRDGVLFVAENPSTALHKVSELYDRLGFAAVGKYNEFENLRRAGIVHADMRGYSYDRRDVTGRSLANAYAQTLGTIFTEQPKPYEVEICVAEVGRVGSPKAPQLYRITYDGSIVDEQHFVVMGGTTEPIATAMRESYRADLDLEAAVGIAVNALRQGGAGEGEKRNVDVASLEVAVLDQSRPRRAFRRIAGTALEQLVPAEPAAASESAPEPKPDTETKPADTQD”: the “soluble on expression in E. coli” value is given as “soluble”. In the case of “MYFSWLFLVFFSSRSLTGTPRSIDQRQLRAELSGTGTPTAPADSPALVPNCTQTRGGEDGEGCKQPRVDIKKFRKKKGAHKPQEPETLNFKFRQNLLSLKFLKERKELLVSII”, the “soluble on expression in E. coli” value is listed as “not soluble”.

For the sequence “MSLSGYAQTTKSEKIDKKLDSIYLKRENYVVSARDKLTIFIFSTRYLNGKLFTNPGIDNYYFPIAPLNIGLGFSHKWLAVNIAILSPKLGKSNYDNSQSKYQNFNLQALAYTPKYGVDIFYSQNLGYFLGNYNGYIDVANAPDKTPYFDMKTNRFTINLLRVFNPVKYSMNATMIGGEMQKNSSSSFIINTSFSLSKFRMSDSIPAFILDQMNQEAIFKGGTFYSISVLPGYGFTWIFSKRFYLGIIPGFGPSFQYKSMTFEDEHENKVAISYRIIAKAGAGFHAKRWTAGISVLYDNERYHLGSKTNIFNNNGKVILKVGYKINVPNWGKGLSKKMSTMQNKFEHTLHNEGHHHHHH”, the “soluble on expression in E. coli” value was “not soluble”.

Regarding “MHVMIFGAGYSGKAIANALKTKAASVCGTTRSADKFANLAAAGMTPLLFDGVHLDDDLIAAMRNVTHLVQSIAPGKDGDPLFALLGGDLKKLLPNLKWLAYLSTVGVYGDHHGAWVNETTPCRPVSARSVERVAAEAAWTEAAQSADVPLSILRLSGIYGPGRNTFMNFEKGTARRLVKKDQVFNRIRVEDIGAAIAFLALKNERGIFNVTDDEPCPPQDVVSFAADLMGVVPPAEQDFGTADLTPMARSFYGENKRVSNAKIRELGFDFRFPEYRQSLKQLWESSLWRG”, the “soluble on expression in E. coli” value was “not soluble”. For “MGSDKIHHHHHHMPYDEILPIETLVRPKVSDFREHYLEKERPVKIARALDAWPAMQKWSLDYFENRFGDETIGVESFQPDERGPGNNSPQGYVKHLRFQELKLKELIRILRTKPDHMYYMASHPFRKSFPNLRADLAPHPYVQGHIEHIPGAHMDSYLWIGPAGTHTPIHTDPMPNFLTQIVGRKMVYLFPPDQASKNLYIGQFERETFSPVDLEKPDLERYPNYRHCTPYRAIIEPGETLHIPRNWGHCVISMDISISISTFFITYPQLFRLVPEFFTQYVKRAFEGWRWKGMENERAGLNPPPR” the value was “not soluble”.

Take “MSLSDAISFRPMTEADLDAVLKIEYAAFSHPWTRGIFSEGLKNYHCWLMFEGSQQVGHGVIQIILDEAHLLNITVKPESQGRGLGLRLLEHLMREAAGHQARECFLEVRASNQAAYRLYERYGFNEIGRRRDYYPAVGGREDALVMACTLFDEGHHHHHH”: the “soluble on expression in E. coli” value is listed as “soluble”. As to “MKRLLKEKEGIRLEFKEARTALPGNLFETICSMLNHDGGDIVLGVSDDGTVAGVEHAKMETMVSNLVNLSNNPQKLDPPFILFPQTYEIDGKWLIHIQVPSSSQVHKTSGIVFNRSNDGDFRVTQPQQIAEIYNRKRMHYTEGIIYPGLRFEDFKVDLFPKVRNLIRSNNPNHPWLALTDQQMLEKAGLWKRDINSTQEGYTLAAALLLGKDEVIQQLLPFFKIDALVRIEDIYRYDDREYIQTNLIEAYEQLMTFVGKHLPDKFYMEGDQRVSLRNKIFREIAANLIVHREYMNAYPCTFIIYSDRVETENANNPHGEGPIDPEHFAPFPKNPTIIKFFMQLGRVDELGSGILNVNRFIKEYANGGSSQFIEGNVFKMIIPVAGEKIEGAIEGAIEGAIEGAIEGATKKVKDKLAILLKAIAENEGKKVPDYVVITKIPRSSIERYIKQLREANLIDFRDKATLIGGYYLTSKMKQKLKEKSLEHHHHHH”, the “soluble on expression in E. coli” value was “not soluble”.

Turning to “MSLRKTQTYKSLPYNPALRDRAKALRKAGILHEALLWFELKSNKLNGLDFDRQKIIGNYIVDFYCAERSVVIEVDGSSHDSKQIEDRERDAYLNGLGLTVIRVLAKDVLRNLEGVVEFLKDHPALTGTPPEEGNKTALTGTPPEEGNKTALTGTPPEEGNKTALTGTPPEEGNKTALTGTPPEEGNKTTLTEAREEGHHHHHH”, the “soluble on expression in E. coli” value is on record as “soluble”. Regarding “MGSDKIHHHHHHMVKMNMSDIDISEPLSDLLAPLNNEQREFLMNNYTIQTYKKNETIYCEGETPSHLMCLITGKVKIFKDGVGGRSQIIRMIKQREYFAYRAYFAKEDFVTAAAAFEPSVICLIPMTAITTLVAQNNDLAMFFIRQLSIDLGISDERTVSLTQKHIRGRLAESLIFLKESYGLEEDGSTLSIYLSREDLANLSNMTTSNAIRTLSQFATERLITIDGRKIKIIEEEKLKKISKIG”, the “soluble on expression in E. coli” value is reported as “not soluble”. As to “MDICDISASQLATSPPPRTAIDFNSSIEESPVKRVKFSPELTKSFEETLSPTVTLVLRNNEEVIFDRYLLSFYSNYFRVLFSSKFRDSNSTTHRIRLISASDLHFLLTIPKAFEQGIKPNITLQKAIELLEPAAFLQMSIALDYISDIICKNLTHENIIKIFRLALLYHTTLAVRVWRSMVRKFQTLFATNVYLSLKENELIGLLTDKHLNLKSEDETTVVVNWIKHNSPLQSDRLTQFAQRNFSRRPQPDATKYEVIRTRQPMDAIVCFGGWASRGVAQKIEVCNTRSDRWQTCNFNYDIPNIHRAYHGIEVVEDKLIVYGGFDGIKQFQTTVLFDLSTKEWRRGANMNDKRCYVTSARVNDSYGRPLVFACGGMNGVSRLKTAEMYDYRADQWTEVANMTQMRSDGAVVTIDNKIVAIGGFDGRNIHQGGEVYDPVLDLWHPLSSNMRTRRTGCTAVSIMNQVCMIIGGFNGNRRLDSAEIYDMREGLWHPEPTLQTARSNFSACQMDTCYVYVAGGFDGQTTTKESERLDLRSKMWQALPDMAEAKSALRMVTLSDHPFLDELFDIPDDTGIVTSW”, the “soluble on expression in E. coli” value is reported as “not soluble”. Consider “MSLKARRGLSASDLINLNADRLQCLLSGHPKFVFNKGRRGWGKEALERYAPEYANTFRLHWLAVKREHMIWRCDNEMDIHQLLTAAMDPQEFARFSQVWQENGLDHNWLPLPVHPWQWQEKIATDFIADFGEGRMVSLGEFGDQWLAQQSLRTLTNASRRGGLDIKLPLTIYNTSCYRGIPGRYIAAGPLASRWLQQVFATDATLVQSGAVILGEPAAGYVSHEGYAALARAPYRYQEMLGVIWRENPCRWLKPDESPFLMATLMEWDENNQPLAGAYIDRSGLDAETWLTQLFRVVVVPLYHLLCRYGVALIAHGQNITLAMKEGVPQRVLLKDFQGDMRLVKEEFPEMDSLPQEVRDVTSRLSADYLIHDLQTGHFVTVLRFISPLMVRLGVPERRFYQLLAAVLSDYMKKHPQMSERFALFSLFRPQIIRVVLNPVKLTWPDLDGGSRMLPNYLEDLQNPLWLVTQEYESEGHHHHHH”, for which the “soluble on expression in E. coli” value is “soluble”. “GKQDRQMIVVDPRKTDTAKLADVHLQVEPHKDYELVSALRAAAKGFNIEAEQVAGVPTETIYEAVDICKNAQFGSLFFAMGVTMSRGKHRIIDNAIQFVIDMNAYTKFVLTPMRGHYNVNGFNQVSTWVTGYPYGVDFSRGYPRYNPGETASNDVLQRGDTDMMINVASDAGAHFPQKAVQHMAKIPLVCIDPHETPSSVISNIVLPPAITGLEVSGTAYRMDGVPIELRKVIKAPEGMLSDAEIMK”: the “soluble on expression in E. coli” value is listed as “not soluble”.

Source of the values: the DeepSol protein solubility set.
